Laboratory results published in patent publication US20220048967A1 (published 2022).
Numbered stars: 1 amine (or outer) side, 2 acyl side, 3 side chain; on linkers, the order of the positions; unused ones are H or OH. Square brackets hold non-standard residues; d marks the D form. Side chains are listed from the residue outwards. Ends that are not written are not given here. * marks the point of attachment. C20 diacid = O=C(O)CCCCCCCCCCCCCCCCCCC(=O)*; αMePhe(2-F) = C[C@](N)(Cc1ccccc1F)C(=O)O; γGlu = O=C(O)[C@H](CCC(=O)[*:2])N[*:1]; αMeF = C[C@](N)(Cc1ccccc1)C(=O)O; AEEA = NCCOCCOCC(=O)O; Aib = CC(C)(N)C(=O)O

B1: Example 166 (peptide)
peptide: Y[Aib]EGT[αMePhe(2-F)]TSDHSI[αMeF]LDEK([AEEA-AEEA-γGlu-C20 diacid])AQ[Aib]TFI[dE]YLIEGG-NH2
modifications: N-terminus assumed
SMILES: CC[C@H](C)[C@H](NC(=O)[C@H](CC(C)C)NC(=O)[C@H](Cc1ccc(O)cc1)NC(=O)[C@@H](CCC(=O)O)NC(=O)[C@@H](NC(=O)[C@H](Cc1ccccc1)NC(=O)[C@@H](NC(=O)C(C)(C)NC(=O)[C@H](CCC(N)=O)NC(=O)[C@H](C)NC(=O)[C@H](CCCCNC(=O)COCCOCCNC(=O)COCCOCCNC(=O)CC[C@H](NC(=O)CCCCCCCCCCCCCCCCCCC(=O)O)C(=O)O)NC(=O)[C@H](CCC(=O)O)NC(=O)[C@H](CC(=O)O)NC(=O)[C@H](CC(C)C)NC(=O)[C@](C)(Cc1ccccc1)NC(=O)[C@@H](NC(=O)[C@H](CO)NC(=O)[C@H](Cc1c[nH]cn1)NC(=O)[C@H](CC(=O)O)NC(=O)[C@H](CO)NC(=O)[C@@H](NC(=O)[C@](C)(Cc1ccccc1F)NC(=O)[C@@H](NC(=O)CNC(=O)[C@H](CCC(=O)O)NC(=O)C(C)(C)NC(=O)[C@@H](N)Cc1ccc(O)cc1)[C@@H](C)O)[C@@H](C)O)[C@@H](C)CC)[C@@H](C)O)[C@@H](C)CC)C(=O)N[C@@H](CCC(=O)O)C(=O)NCC(=O)NCC(N)=O
B2: Example 162 (peptide)
peptide: Y[Aib]EGT[αMePhe(2-F)]TSDHSI[αMeF]LDEK([AEEA-AEEA-γGlu-γGlu-C20 diacid])AQ[Aib]TFI[dE]HLIEGGPSSG-NH2
modifications: N-terminus assumed
SMILES: CC[C@H](C)[C@H](NC(=O)[C@H](CC(C)C)NC(=O)[C@H](Cc1c[nH]cn1)NC(=O)[C@@H](CCC(=O)O)NC(=O)[C@@H](NC(=O)[C@H](Cc1ccccc1)NC(=O)[C@@H](NC(=O)C(C)(C)NC(=O)[C@H](CCC(N)=O)NC(=O)[C@H](C)NC(=O)[C@H](CCCCNC(=O)COCCOCCNC(=O)COCCOCCNC(=O)CC[C@H](NC(=O)CC[C@H](NC(=O)CCCCCCCCCCCCCCCCCCC(=O)O)C(=O)O)C(=O)O)NC(=O)[C@H](CCC(=O)O)NC(=O)[C@H](CC(=O)O)NC(=O)[C@H](CC(C)C)NC(=O)[C@](C)(Cc1ccccc1)NC(=O)[C@@H](NC(=O)[C@H](CO)NC(=O)[C@H](Cc1c[nH]cn1)NC(=O)[C@H](CC(=O)O)NC(=O)[C@H](CO)NC(=O)[C@@H](NC(=O)[C@](C)(Cc1ccccc1F)NC(=O)[C@@H](NC(=O)CNC(=O)[C@H](CCC(=O)O)NC(=O)C(C)(C)NC(=O)[C@@H](N)Cc1ccc(O)cc1)[C@@H](C)O)[C@@H](C)O)[C@@H](C)CC)[C@@H](C)O)[C@@H](C)CC)C(=O)N[C@@H](CCC(=O)O)C(=O)NCC(=O)NCC(=O)N1CCC[C@H]1C(=O)N[C@@H](CO)C(=O)N[C@@H](CO)C(=O)NCC(N)=O
B3: Example 167 (peptide)
peptide: Y[Aib]EGT[αMePhe(2-F)]TSDHSI[αMeF]LDEK([AEEA-AEEA-γGlu-C20 diacid])AQ[Aib]TFI[dE]YLIEGGPSSG-NH2
modifications: N-terminus assumed
SMILES: CC[C@H](C)[C@H](NC(=O)[C@H](CC(C)C)NC(=O)[C@H](Cc1ccc(O)cc1)NC(=O)[C@@H](CCC(=O)O)NC(=O)[C@@H](NC(=O)[C@H](Cc1ccccc1)NC(=O)[C@@H](NC(=O)C(C)(C)NC(=O)[C@H](CCC(N)=O)NC(=O)[C@H](C)NC(=O)[C@H](CCCCNC(=O)COCCOCCNC(=O)COCCOCCNC(=O)CC[C@H](NC(=O)CCCCCCCCCCCCCCCCCCC(=O)O)C(=O)O)NC(=O)[C@H](CCC(=O)O)NC(=O)[C@H](CC(=O)O)NC(=O)[C@H](CC(C)C)NC(=O)[C@](C)(Cc1ccccc1)NC(=O)[C@@H](NC(=O)[C@H](CO)NC(=O)[C@H](Cc1c[nH]cn1)NC(=O)[C@H](CC(=O)O)NC(=O)[C@H](CO)NC(=O)[C@@H](NC(=O)[C@](C)(Cc1ccccc1F)NC(=O)[C@@H](NC(=O)CNC(=O)[C@H](CCC(=O)O)NC(=O)C(C)(C)NC(=O)[C@@H](N)Cc1ccc(O)cc1)[C@@H](C)O)[C@@H](C)O)[C@@H](C)CC)[C@@H](C)O)[C@@H](C)CC)C(=O)N[C@@H](CCC(=O)O)C(=O)NCC(=O)NCC(=O)N1CCC[C@H]1C(=O)N[C@@H](CO)C(=O)N[C@@H](CO)C(=O)NCC(N)=O
B4: Example 164 (peptide)
peptide: YXEGTXTSDHSIXLDEKAQXTFIXYLIXGGPSSGAPPPS
modifications: Y-Aib-EGT-αMeF(2F)-TSDHSI-αMeF-LDEK((2-[2-(2-Amino-ethoxy)-ethoxy]-acetyl)2-(γ-Glu)-CO-(CH2)18-CO2H)AQ-Aib-TFI-(D-Glu)-YLI-(D-Glu)-GGPSSGAPPPS-NH2
B5: Example 168 (peptide)
peptide: YXEGTXTSDHSIXLDEKAQXTFIXYLIEGGPSSGAPPPS
modifications: Y-Aib-EGT-αMeF(2F)-TSDHSI-αMeF-LDEK((2-[2-(2-Amino-ethoxy)-ethoxy]-acetyl)2-(γ-Glu)-CO-(CH2)18-CO2H)AQ-Aib-TFI-(D-Glu)-YLIEGGPSSGAPPPS-NH2
B6: Example 169 (peptide)
peptide: YXEGTXTSDHSIXLDEKAQXTFIXYLIEGGPSSGAPPPS
modifications: Y-Aib-EGT-αMeF(2F)-TSDHSI-αMeF-LDEK((2-[2-(2-Amino-ethoxy)-ethoxy]-acetyl)2-(γ-Glu)-CO-(CH2)16-CO2H)AQ-Aib-TFI-(D-Glu)-YLIEGGPSSGAPPPS-NH2

Key:
[1] = target: human GLP-1 receptor (GLP-1R) (human, UniProt P43220 24-463); assay: cell-based or functional assay
[2] = target: T1, human gastric inhibitory peptide receptor (GIPR) (human, UniProt P48546 22-466); assay: cell-based or functional assay
T1 sequence (looked up): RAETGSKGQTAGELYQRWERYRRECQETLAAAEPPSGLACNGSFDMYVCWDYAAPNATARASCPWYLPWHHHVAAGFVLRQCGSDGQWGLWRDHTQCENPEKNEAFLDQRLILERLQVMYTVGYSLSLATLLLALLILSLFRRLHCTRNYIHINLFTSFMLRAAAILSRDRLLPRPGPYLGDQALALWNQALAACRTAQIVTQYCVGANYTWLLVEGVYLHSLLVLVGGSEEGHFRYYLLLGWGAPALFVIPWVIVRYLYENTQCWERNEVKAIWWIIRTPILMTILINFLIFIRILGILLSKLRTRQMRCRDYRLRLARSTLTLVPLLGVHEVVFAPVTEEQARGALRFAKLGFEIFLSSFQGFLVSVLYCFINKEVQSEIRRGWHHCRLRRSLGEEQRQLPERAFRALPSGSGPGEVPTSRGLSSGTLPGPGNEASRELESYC

Row | Binder | hGLP1R cAMP EC50 ratio [1] | hGLP1R cAMP Rel EC50 [1] [nM] | hGIPR cAMP EC50 ratio [2] | hGIPR cAMP Rel EC50 [2] [nM]
1 | B1 | 0.0143 | 4.08 | 0.504 | 0.355
2 | B2 | 0.00161 | 36 | 0.0393 | 4.56
3 | B3 | 0.0487 | 1.2 | 0.291 | 0.617
4 | B4 | 0.00373 | 15.6 | 0.0581 | 3.09
5 | B5 | 0.0323 | 1.8 | 0.313 | 0.572
6 | B6 | 0.0136 | 3.37 | 0.122 | 0.86
